{"source": "patent US8642284", "proteins": {"B1": {"name": "recombinant 6xHis-tagged full-length mSir2α (protein)", "chain": "MADEVALALQAAGSPSAAAAMEAASQPADEPLRKRPRRDGPGLGRSPGEPSAAVAPAAAGCEAASAAAPAALWREAAGAAASAEREAPATAVAGDGDNGSGLRREPRAADDFDDDEGEEEDEAAAAAAAAAIGYRDNLLLTDGLLTNGFHSCESDDDDRTSHASSSDWTPRPRIGPYTFVQQHLMIGTDPRTILKDLLPETIPPPELDDMTLWQIVINILSEPPKRKKRKDINTIEDAVKLLQECKKIIVLTGAGVSVSCGIPDFRSRDGIYARLAVDFPDLPDPQAMFDIEYFRKDPRPFFKFAKEIYPGQFQPSLCHKFIALSDKEGKLLRNYTQNIDTLEQVAGIQRILQCHGSFATASCLICKYKVDCEAVRGDIFNQVVPRCPRCPADEPLAIMKPEIVFFGENLPEQFHRAMKYDKDEVDLLIVIGSSLKVRPVALIPSSIPHEVPQILINREPLPHLHFDVELLGDCDVIINELCHRLGGEYAKLCCNPVKLSEITEKPPRPQKELVHLSELPPTPLHISEDSSSPERTVPQDSSVIATLVDQATNNNVNDLEVSESSCVEEKPQEVQTSRNVENINVENPDFKAVGSSTADKNERTSVAETVRKCWPNRLAKEQISKRLEGNQYLFVPPNRYIFHGAEVYSDSEDDVLSSSSCGSNSDSGTCQSPSLEEPLEDESEIEEFYNGLEDDTERPECAGGSGFGADGGDQEVVNEAIATRQELTDVNYPSDKS"}, "B2": {"name": "recombinant mSir2α mutant R266A (protein)", "chain": "B1 chain with R266A"}, "B3": {"name": "recombinant mSir2α mutant P285A (protein)", "chain": "B1 chain with P285A"}, "B4": {"name": "recombinant mSir2α mutant H355A (protein)", "chain": "B1 chain with H355A"}}, "key": {"[1]": {"target": "unacetylated histone H3 N-terminal tail peptide (residues 1-20)"}, "[2]": {"target": "histone H4 (calf thymus), P62803"}, "[3]": {"target": "histone H2B (calf thymus), P62808"}, "[4]": {"target": "histone H3 N-terminal tail peptide (residues 1-20) di-acetylated at lysines 9 and 14"}, "[5]": {"target": "histone H2A (calf thymus), P0C0S9"}, "[6]": {"target": "histone H4 N-terminal tail peptide (residues 1-20) acetylated at Lys16"}, "[7]": {"target": "histone H3 (calf thymus), intact protein, P68432"}}, "note": "Where a chain is given by its changes, count along the chain named. Names may count otherwise.", "data": [{"protein": "B1", "values": [{"measurement": "ADP-ribosylation of peptide (32P-NAD, thin layer chromatography)", "setting": "[1]", "value": "modified only the diacetylated H3 tail peptide (unacetylated peptide not modified)"}, {"measurement": "ADP-ribosylation (transfer of 32P from NAD, SDS-PAGE)", "setting": "histone H1 (calf thymus)", "value": "but not to H1, H2A and H4"}, {"measurement": "ADP-ribosylation (transfer of 32P from NAD, SDS-PAGE)", "setting": "[2]", "value": "but not to H1, H2A and H4"}, {"measurement": "ADP-ribosylation (transfer of 32P from NAD, SDS-PAGE)", "setting": "[3]", "value": "transferred radioactive ADP-ribose to H2B and H3"}, {"measurement": "ADP-ribosylation of peptide (32P-NAD, thin layer chromatography)", "setting": "[4]", "value": "Both the yeast and mouse Sir2 modified only the diacetylated H3 tail peptide"}, {"measurement": "NAD-dependent deacetylation (HPLC)", "setting": "[4]", "value": "gave rise to the same array of products with a similar yield as the yeast enzyme"}, {"measurement": "ADP-ribosylation (transfer of 32P from NAD, SDS-PAGE)", "setting": "[5]", "value": "but not to H1, H2A and H4"}, {"measurement": "ADP-ribosyltransferase and NAD hydrolase activities (thin layer chromatography)", "setting": "[6]", "value": "Both ADP-ribosylation and NAD hydrolysis were stimulated by the Lys16Ac peptide"}, {"measurement": "ADP-ribosylation (transfer of 32P from NAD, SDS-PAGE)", "setting": "[7]", "value": "transferred radioactive ADP-ribose to H2B and H3"}]}, {"protein": "B2", "values": [{"measurement": "mono-ADP-ribosylation activity relative to wild type (Phosphorimaging)", "setting": "[3]", "value": 18, "unit": "% for R266A"}]}, {"protein": "B3", "values": [{"measurement": "mono-ADP-ribosylation activity relative to wild type (Phosphorimaging)", "setting": "[3]", "value": 5, "unit": "% for P285A"}]}, {"protein": "B4", "values": [{"measurement": "mono-ADP-ribosylation activity relative to wild type (Phosphorimaging)", "setting": "[3]", "value": "completely abolished the activity"}]}]}
